Results taken from patent US20210317201A1 (Boehringer Ingelheim, published 2021).
Numbering of substitutions follows the chain as printed. Names and notes keep the numbering of the source. Values joined by “and” are separate entries in the source; they are usually repeats but may differ in a detail not shown here. Equal values may be shown once.

T1: Human IL-23 no linker (human, UniProt P29460 23-328)
T1 construct: also called recombinant IL-23 without linker
T1 sequence 1: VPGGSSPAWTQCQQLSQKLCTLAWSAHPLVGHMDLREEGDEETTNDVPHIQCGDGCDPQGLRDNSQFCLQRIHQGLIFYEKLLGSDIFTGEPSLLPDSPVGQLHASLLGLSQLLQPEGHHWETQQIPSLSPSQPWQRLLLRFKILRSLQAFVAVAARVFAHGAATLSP
T1 sequence 2: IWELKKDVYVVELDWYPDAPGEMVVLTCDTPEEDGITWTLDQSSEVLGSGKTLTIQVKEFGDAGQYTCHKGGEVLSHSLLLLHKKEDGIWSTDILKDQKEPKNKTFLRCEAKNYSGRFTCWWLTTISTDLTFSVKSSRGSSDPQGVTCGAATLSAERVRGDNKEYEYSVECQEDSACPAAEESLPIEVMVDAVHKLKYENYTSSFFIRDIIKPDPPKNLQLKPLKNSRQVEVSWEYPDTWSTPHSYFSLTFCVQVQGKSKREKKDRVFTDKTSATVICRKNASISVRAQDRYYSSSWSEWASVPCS

T2: recombinant human IL-23 (human, UniProt P29460 23-328)
T2 construct: also called Human recombinant IL-23
T2 sequence 1: T1 sequence 1
T2 sequence 2: T1 sequence 2

T3: human IL-12 (human, UniProt P29459 23-219; P29460 23-328)
T3 sequence (looked up) 1: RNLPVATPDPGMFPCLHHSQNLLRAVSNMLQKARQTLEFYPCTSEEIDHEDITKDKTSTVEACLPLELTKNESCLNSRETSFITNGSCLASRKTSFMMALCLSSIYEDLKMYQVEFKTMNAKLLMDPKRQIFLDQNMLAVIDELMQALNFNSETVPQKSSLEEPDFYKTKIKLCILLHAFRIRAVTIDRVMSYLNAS
T3 sequence (looked up) 2: T1 sequence 2

T4: natural human IL-23 from activated THP-1 cells (human, UniProt P29460 23-328)
T4 sequence 1: T1 sequence 1
T4 sequence 2: T1 sequence 2

B1: Mouse antibody 6B8 (antibody, V domains shown)
VH: QVQLQQSDAELVKPGTSVKTSCKISGNTFTDQTIHWMKQRPEQGLEWIGYIYPRDDSPKYNENFKGKATLTADKSSSTAYMQLNSLTSEDSAVYFCAIPDRSGYAWFIYWGQGTLVTVSS
VL: DIVMTQSHKFLSTSVGDRVTITCKASRDVAIAVAWYQQKPGQSPKLLLFWASTRHTGVPDRFTGSGSRTDFTLTISNVQSEDLADYFCHQYSSYPFTFGSGTKLEIK
notes: Mouse monoclonal antibody from hybridoma; also called Mouse 6B8; 6B8Vk
B2: Antibody A (antibody, human IgG1, kappa, L234A L235A, V domains shown)
VH: QVQLVQSGAEVKKPGSSVKVSCKASGYTFTDQTIHWMRQAPGQGLEWIGYIYPRDDSPKYNENFKGKVTITADKSTSTAYMELSSLRSEDTAVYYCAIPDRSGYAWFIYWGQGTLVTVSS
VL: DIQMTQSPSSLSASVGDRVTITCKASRDVAIAVAWYQQKPGKVPKLLIYWASTRHTGVPSRFSGSGSRTDFTLTISSLQPEDVADYFCHQYSSYPFTFGSGTKLEIKR
notes: Humanized 6B8, human IgG1-KO (L234A/L235A) / kappa; also called 6B8-IgG1KO-2 with IgK-66; 6B8CVH-02 / 6B8CVK-66
B3: Antibody B (antibody, human IgG1, kappa, L234A L235A, V domains shown)
VH: B2 VH with Y27F, M37V, I48M, I70L
VL: B2 VL
notes: Humanized 6B8, human IgG1-KO (L234A/L235A) / kappa; also called 6B8-IgG1KO-5 with IgK-66; 6B8CVH-05 / 6B8CVK-66
B4: Antibody D (antibody, human IgG1, kappa, L234A L235A, V domains shown)
VH: B2 VH with Y27F, M37V, I48M, I70L
VL: B2 VL with I48L, Y49F, S60D, R68G, V83L, F87Y, S100Q
notes: Humanized 6B8, human IgG1-KO (L234A/L235A) / kappa; also called 6B8-IgG1KO-5 with IgK-65; 6B8CVH-05 / 6B8CVK-65
B5: Antibody C (antibody, human IgG1, kappa, L234A L235A, V domains shown)
VH: B2 VH
VL: B2 VL with I48L, Y49F, S60D, R68G, V83L, F87Y, S100Q
notes: Humanized 6B8, human IgG1-KO (L234A/L235A) / kappa; also called 6B8-IgG1KO-2 with IgK-65; 6B8CVH-02 / 6B8CVK-65
B6: antibody C1273 (disclosed in WO 2007/005955) (antibody, V domains shown)
VH: DVNLVESGGGLVKPGGSLKLSCAASGFTFSSYTMSWVRQTPEKRLEWVATISSGGTYTYYPDSVKGRFTISRDNAKNTLYLQMSSLKSEDTAMFYCTRDNHAYDRGPFFDYWGQGATLTVSS
VL: DIVMSQSPSSLVVSVGEKVTMSCKSSQNLFYRSNQKNHLAWYQQKPGQSPTLLIYWTSTRESGVPDRFTGSGSGTDFTLTISRVKAEDLAVYYCQQYYSYPPTFGGGTKLEIK
B7: 34G3 (antibody, V domains shown)
VH: EFQLQQSGPELVKPGASVKISCKASGYSFTDYNMNWVKQSKGKSLEWIGVIIPNYGFTSYNQNFKGKATLTVDQSSSTAHMQLNSVTSEDSAVYYCVRDGGILLWYLDVWGTGTTVTVSS
VL: DVVMTQTPLSLPVSLGDQASISCRSSQSLVHSNGNTYLHWYLQKPGQSPKLLIYKVSNRFSGVPDRFSGSGSGTDFTLKISRVEAEDLGVYFCSQSTHVPYTFGGGTKLEIN
notes: Mouse monoclonal antibody from hybridoma; also called 34G3Vk; 34G3VH
B8: 9D12 (antibody, V domains shown)
VH: QVQLKESGPVLVAPSQSLSITCTVSGFSLNNFAISWVRQPPGKGLEWLGAIWTGGGTNYNSALKSRLSISKDNSKSQVFLKMNSLQTDDTARYYCVRKDYSYGGAMDYWGQGTSVTVSS
VL: DIALTQSPASLAVSLGQRATISCRASETINFYGTSFMHWYQQKPGQSPKLLIYRASNLESGIPARFSGSGSRTDFTLTINPVEADDVATYYCQQTNEDPYTFGGGTKLEIK
notes: Mouse monoclonal antibody from hybridoma; also called 9D12-Vk; 9D12VH
B9: 34D9 (antibody, V domains shown)
VH: EVQLQQSGPELVKPGASVKIPCKASGYTFTDYNMDWVKKSHGKSLEWIGDINPHNGGTIYNQKFKGKATLTVDKSSSTAHMELRSLTSEDTAVYYCARNYYGSSYGWYFDVWGTGTTVTVSS
VL: DIMMTQSHKFMSTSVGDRVSITCKASQDVGNAVVWYQQKPGQSPKLLIYWASTRHIGVPDRFTGSGSGTDFTLTITNVQSEDLADYFCQQYSSYLTFGAGTKLELK
notes: Mouse monoclonal antibody from hybridoma; also called 34D9Vk; 34D9VH7
B10: Chimeric 6B8 (antibody, V domains shown)
VH: B1 VH
VL: B1 VL
B11: Chimeric 18E5 (antibody, V domains shown)
VH: EVQLQQSGPELVKPGAAVKMSCKASGYTFTRYLIHWVKQKPGQGLEWIGYINPYNDGTKYNEKFKGKATLTSDKSSSTAYMELSSLTSEDSAVYYCTSNWDLDYWGQGTTLTVSS
VL: DIVMTQSPATLSVTPGDRVSLSCRASQSISDYLYWYQQKSHESPRLLIKFASQSISGIPSRFTGSGSGSDFTLSIDSVEPDDVGVFFCQNGHSFPFTFGGGTKLEIK

target: T1, Human IL-23 no linker; assay: SPR, ProteOn XPR36, global 1:1 fit
Protocol: B) Affinities were measured for humanized antibodies derived from mouse antibody 6B8.

Binder | Kd | koff | kon
B1 | 0.0245 nM | 1.38e-05 s⁻¹ | 557000 M⁻¹ s⁻¹
B2 | < 0.001 nM |  | 
B3 | < 0.001 nM | < 1e-06 s⁻¹ | 517000 M⁻¹ s⁻¹
B4 | 0.135 nM | 4.93e-05 s⁻¹ | 366000 M⁻¹ s⁻¹
B5 | 0.0363 nM | 1.65e-05 s⁻¹ | 454000 M⁻¹ s⁻¹
B6 | 0.0158 nM | 5.75e-06 s⁻¹ | 360000 M⁻¹ s⁻¹

target: T2, recombinant human IL-23; assay: BLI, Fortebio Octet; hybridoma-derived antibody
Protocol: Kinetics and binding affinities were measured using the Fortebio OCTET® (Fortebio, Menlo Park, Calif.) using material generated from hybridoma following single column purification.

Binder | Kd | koff | kon
B1 | < 0.001 nM | < 1e-06 s⁻¹ | 
B7 | 0.0328 nM | 3.1e-05 s⁻¹ | 918000 M⁻¹ s⁻¹
B8 | < 0.001 nM | < 1e-06 s⁻¹ | 
B9 | 0.544 nM | 1.87e-06 s⁻¹ | 3440 M⁻¹ s⁻¹

target: T3, human IL-12; assay: cell-based or functional assay

Binder | Average pg/ml IFN-γ +/- Standard Deviation, human PHA-derived T cell blasts with 1 ng/ml IL-12 (no antibody: 532 +/- 51; unstimulated: 87 +/- 7)
B10 | 523 pg/ml IFN-γ
B2 | 497 pg/ml IFN-γ
B3 | 537 pg/ml IFN-γ
B4 | 539 pg/ml IFN-γ
B5 | 495 pg/ml IFN-γ
B11 | 511 pg/ml IFN-γ

target: T2, recombinant human IL-23; assay: cell-based or functional assay

Binder | IC50, IL-23 induced STAT3 phosphorylation in human DB cells (phospho-STAT3 ELISA)
B3 | 0.073 nM and 0.084 nM
B4 | 0.158 nM
B5 | 0.132 nM and 0.08 nM

target: T2, recombinant human IL-23; assay: cell-based or functional assay; remark: another data set of the same source

Binder | IC50, IL-23 stimulated IL-17 production from mouse splenocytes
B10 | 0.026 nM and 0.037 nM and 0.057 nM
B1 | 0.013 nM
B2 | 0.005 nM and 0.015 nM
B4 | 0.236 nM and 0.225 nM and 0.614 nM and 0.458 nM
B7 | 0.336 nM
B8 | 0.059 nM
B11 | 0.031 nM
B9 | 0.51 nM

target: T4, natural human IL-23 from activated …; assay: cell-based or functional assay

Binder | IC50, IL-23 stimulated IL-17 production from mouse splenocytes
B10 | 0.005 nM and 0.002 nM and 0.006 nM and 0.003 nM
B2 | 0.001 nM
B3 | 0.009 nM and 0.008 nM
B4 | 0.133 nM and 0.125 nM
B5 | 0.016 nM and 0.032 nM
B7 | 0.027 nM and 0.025 nM
B8 | 0.281 nM and 0.138 nM
B9 | 0.456 nM

target: T5, cynomologous IL-23 (cynomolgus monkey); assay: SPR, ProteOn XPR36, global 1:1 fit
T5 construct: also called cynomolgus IL-23; cynomolgus monkey IL-23

Binder | Kd | koff | kon
B2 | < 0.001 nM |  | 
B3 | < 0.001 nM | < 1e-06 s⁻¹ | 2.99e+06 M⁻¹ s⁻¹
B4 | 0.0159 nM | 3.29e-05 s⁻¹ | 2.07e+06 M⁻¹ s⁻¹
B5 | 0.0029 nM | 9.36e-06 s⁻¹ | 3.23e+06 M⁻¹ s⁻¹
